T1: engineered WW1-WW2rw tandem domains of WWOX (human, UniProt Q9NZC7 16-91, E66R | Y85W)
T1 sequence (looked up): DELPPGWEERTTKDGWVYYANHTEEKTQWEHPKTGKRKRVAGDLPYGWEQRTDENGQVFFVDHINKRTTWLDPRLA

T2: WW1-WW2 tandem domains (residues 16-91) of human WWOX (human, UniProt Q9NZC7 16-91)
T2 sequence (looked up): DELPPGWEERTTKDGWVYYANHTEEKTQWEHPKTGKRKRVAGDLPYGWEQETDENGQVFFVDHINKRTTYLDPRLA

T3: WW1 domain (residues 16-50) of human WWOX (human, UniProt Q9NZC7 16-50)
T3 chain (looked up): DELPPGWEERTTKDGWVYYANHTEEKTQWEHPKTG


Experiments:
Test in all cases: ITC
[1] = molecular target: T1, engineered WW1-WW2rw tandem domains of …
[2] = molecular target: T2, WW1-WW2 tandem domains (residues 16-91) …
[3] = molecular target: engineered WW2_RW domain of WWOX (E66R/Y85W double-mutant of WW2 domain) (human, UniProt Q9NZC7 57-91, E66R | Y85W)
[4] = molecular target: T3, WW1 domain (residues 16-50) of human …

Row | Kd [1] [µM] | dH [1] [kcal/mol] | stoichiometry N [1] | Kd [2] [µM] | Kd [3] [µM] | dH [3] [kcal/mol] | Kd [4] [µM] | dH [2] [kcal/mol] | stoichiometry N [2] | dH [4] [kcal/mol] | Binder
1 | 103 | -8.66 | 1.07 | > 1000 | 80 | -5.59 | > 1000 |  |  |  | STFKPPAYEDVV [WBP1_PY1 peptide (12-mer spanning the PY1 PPXY motif of human WBP1)]
2 | 86 | -11.5 | 1.02 | 326 | 69 | -8.44 | > 1000 | -3.36 | 1.03 |  | VQPPPPPYPGPM [WBP2_PY2 peptide (12-mer spanning the PY2 PPXY motif of human WBP2)]
3 | 101 | -10.1 | 2.02 | 132 | 123 | -12.1 | 366 | -9.85 | 0.99 | -16.1 | PGTPPPPYTVAP [WBP1_PY2 peptide (12-mer spanning the PY2 PPXY motif of human WBP1)]

Reference: publication PMC3412936 (Journal of molecular biology, 2012)
